Reference: patent publication US20150232576

Target: T1, endothelial nitric oxide synthase (eNOS), purified, unphosphorylated (UniProt P29473)
T1 sequence: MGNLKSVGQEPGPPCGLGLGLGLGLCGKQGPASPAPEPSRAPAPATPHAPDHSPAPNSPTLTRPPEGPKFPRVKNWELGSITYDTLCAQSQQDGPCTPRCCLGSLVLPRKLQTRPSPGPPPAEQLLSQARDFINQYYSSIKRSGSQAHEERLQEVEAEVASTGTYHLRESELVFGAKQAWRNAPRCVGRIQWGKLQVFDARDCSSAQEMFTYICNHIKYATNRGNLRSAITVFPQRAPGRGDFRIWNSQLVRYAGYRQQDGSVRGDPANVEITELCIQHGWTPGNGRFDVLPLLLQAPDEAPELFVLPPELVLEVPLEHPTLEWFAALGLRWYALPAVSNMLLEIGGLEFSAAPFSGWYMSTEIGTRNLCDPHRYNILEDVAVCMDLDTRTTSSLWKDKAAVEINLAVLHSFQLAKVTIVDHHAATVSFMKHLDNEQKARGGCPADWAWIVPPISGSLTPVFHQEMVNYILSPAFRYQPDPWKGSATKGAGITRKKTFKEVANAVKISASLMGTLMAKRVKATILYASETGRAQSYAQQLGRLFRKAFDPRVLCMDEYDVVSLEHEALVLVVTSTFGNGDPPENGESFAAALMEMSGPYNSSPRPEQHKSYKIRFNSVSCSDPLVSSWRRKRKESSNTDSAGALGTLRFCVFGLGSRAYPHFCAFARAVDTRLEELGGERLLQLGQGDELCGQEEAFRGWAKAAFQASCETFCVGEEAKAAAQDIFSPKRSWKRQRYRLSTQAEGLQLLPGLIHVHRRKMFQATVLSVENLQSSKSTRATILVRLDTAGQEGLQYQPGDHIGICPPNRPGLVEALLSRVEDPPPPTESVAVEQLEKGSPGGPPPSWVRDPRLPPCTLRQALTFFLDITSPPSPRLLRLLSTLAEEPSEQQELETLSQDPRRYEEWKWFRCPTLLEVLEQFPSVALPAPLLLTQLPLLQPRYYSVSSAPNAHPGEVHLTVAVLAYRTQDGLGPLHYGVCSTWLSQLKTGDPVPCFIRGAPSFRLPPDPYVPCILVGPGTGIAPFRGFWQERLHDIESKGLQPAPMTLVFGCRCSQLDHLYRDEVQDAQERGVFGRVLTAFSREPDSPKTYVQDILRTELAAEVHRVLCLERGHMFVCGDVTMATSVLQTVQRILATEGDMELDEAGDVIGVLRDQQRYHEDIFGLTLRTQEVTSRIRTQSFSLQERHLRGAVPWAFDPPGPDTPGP

With Phosphorylated His-p38 (p38 MAP kinase) the “NO production (hemoglobin capture assay)” value was “Weak inhibition of NO formation by 1 µM p38 in the presence of 0.6 µM CaM was observed; NO production was reduced by an average of 30%”.
